This is an account of results in patent publication US10525113B2, “Micellar polypeptide vaccine having pegylated phospholipids as carrier” (INSTITUTE OF BIOPHYSICS, CHINESE ACADEMY OF SCIENCES, priority 2014, dated 2020).

The nature of series [1]: Entrapment efficiency of fatty-acidified antigenic polypeptide in PEG-PE micelle (centrifugation, rhodamine fluorescence). Format: physicochemical. As to conditions: lipid:MPLA (w/w) 100:1. Here is the method:
According to the proportions shown in Table 2 and Table 3, the micelles containing different proportions of polypeptides are prepared. The preparation process is carried out in the same manner as described in Embodiment 1. The prepared micelle vaccine solutions of different proportions are subjected to 14,000 g high-speed centrifugation for 30 minutes. The undissolved free antigenic polypeptide is separated from the antigen entrapped by micelle in the solution.
The maximal excitation wavelength of the rhodamine fluorescence labeled by the polypeptide is 535 nm and the maximum emission wavelength is 590 nm.
The antigen content in the solution is detected by fluorescence spectrophotometry, and then the effective entrapment efficiency of antigenic polypeptide is calculated according to the formula (see Table 2. Table 3, line 3). It can be seen that, in the condition where the mass ratio of PEG-PE to the fatty-acid-modified polypeptide is greater than or equal to 10:1, the entrapment efficiency is about 100%.

For series [2] the following is noted: water / aqueous solution.
Description: Thus, free antigenic polypeptide can be separated from the antigenic polypeptide loaded on micelle, and then the entrapment efficiency of antigenic polypeptide is calculated based on the change in the content of the antigenic polypeptide loaded on micelle in the solution. The entrapment efficiency=the amount of antigen to be entrapped/total antigen ×100%.
For series [3] the following is noted: 100 μL subcutaneous, shoulder; 0 hour to 7 days; FIG. 3.
Description: 20 μL of 10 mg/mL DMSO stock solution of rhodamine-labeled, fatty-acidified E7 polypeptide (sequence: palmitic acid-[sequence], rhodamine labeled in amino acid K, synthesized in Jill Biochemical Co., Ltd.) is added to 1 mL of sterile water to obtain a fluorescent polypeptide solution with the concentration of 0.2 mg/mL.
10 mg of PEG-PE powder is weighed and dissolved in 1 mL of chloroform in a test tube, and 0.2 mL of solution of rhodamine-labeled, fatty-acidified E7 polypeptide in methanol (1 mg/mL) is taken such that in micelle. The solution is gently shaken according to the method in Embodiment 1 to mix evenly. Nitrogen is used to blow and dry the solution to form a uniform thin membrane. The residual organic solvent and moisture are completely removed in a vacuum drier overnight. 1 mL of sterile normal saline is added, and 53° C. water bath incubation is conducted for 30 minutes for hydrated lipid membrane. A light purple uniform transparent solution is obtained, in which the concentration of fluorescent polypeptide is 0.2 mg/mL. […]
7 mg of DPPC and 3 mg of cholesterol are dissolved in chloroform separately and then mixed in a test tube, and 0.2 mL of solution of rhodamine-labeled, fatty-acidified E7 polypeptide in methanol (1 mg/mL) is taken. […] The concentration of fluorescence polypeptide is 0.2 mg/mL. […]

Ends that are not written are not given here. * marks the point of attachment. Palmitoyl = CCCCCCCCCCCCCCCC(=O)*

With “palmitic acid-EQLESIINFEKLTEWKD (Palmitoyl-EQLESIINFEKLTEWKD) [OT-1 Antigenic Polypeptide]”, the “entrapment efficiency (%)” value is 27.91% in series [1] (lipid:peptide (w/w) 1:1); 40.10% in series [1] (lipid:peptide (w/w) 2:1); 91.76% in series [1] (lipid:peptide (w/w) 5:1); 100.00% in series [1] (lipid:peptide (w/w) 10:1); 100.00% in series [1] (lipid:peptide (w/w) 20:1); 100.00% in series [1] (lipid:peptide (w/w) 50:1).

Turning to “palmitic acid-GQAEPDRAHYNIVTFCCKCD (Palmitoyl-GQAEPDRAHYNIVTFCCKCD; cysteine pairing not given here) [E7 Antigenic Polypeptide]”, the “entrapment efficiency (%)” value came to 25.48% in series [1] (lipid:peptide (w/w) 1:1); 67.76% in series [1] (lipid:peptide (w/w) 2:1); 97.99% in series [1] (lipid:peptide (w/w) 5:1); 100.00% in series [1] (lipid:peptide (w/w) 10:1); 100.00% in series [1] (lipid:peptide (w/w) 20:1); 100.00% in series [1] (lipid:peptide (w/w) 50:1). Moreover, the “solubility / state in water” value in series [2] is reported as “present in an aggregated form in aqueous solution”. In series [3], the “subcutaneous diffusion / localized retention at injection site” value was “subcutaneous localized retention at the injection site is evident”.
